Data from article doi:10.1101/2023.02.02.526371.

T1: PIF3-GST (Arabidopsis thaliana, UniProt O80536 1-524)
T1 sequence: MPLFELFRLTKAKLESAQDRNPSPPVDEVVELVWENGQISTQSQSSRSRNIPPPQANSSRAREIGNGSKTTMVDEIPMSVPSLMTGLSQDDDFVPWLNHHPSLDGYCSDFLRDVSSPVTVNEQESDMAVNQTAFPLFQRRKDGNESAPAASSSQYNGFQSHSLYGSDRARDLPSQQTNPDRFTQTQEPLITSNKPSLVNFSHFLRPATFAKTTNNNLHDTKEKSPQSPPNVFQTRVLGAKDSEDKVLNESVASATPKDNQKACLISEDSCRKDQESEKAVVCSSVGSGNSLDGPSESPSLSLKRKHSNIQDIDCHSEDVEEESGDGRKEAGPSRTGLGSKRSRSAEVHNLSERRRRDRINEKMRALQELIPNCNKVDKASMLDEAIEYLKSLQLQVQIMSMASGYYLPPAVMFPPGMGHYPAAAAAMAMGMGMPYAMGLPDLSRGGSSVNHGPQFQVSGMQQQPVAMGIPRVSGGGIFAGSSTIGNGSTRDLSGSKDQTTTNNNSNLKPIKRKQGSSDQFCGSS


Biological target: T1, PIF3-GST
Assay: EMSA

| Binder | binding result |
| --- | --- |
| PIEZO promoter probe 1 (dsDNA) DNA 1: CCTAGAACTAAACACATGAGCCTCCTTCTT DNA 2: AAGAAGGAGGCTCATGTGTTTAGTTCTAGG | binds |
| PIEZO promoter probe 2 (dsDNA) DNA 1: ATCCAAATGGACCACATGCCCATCAACCTCCAT DNA 2: ATGGAGGTTGATGGGCATGTGGTCCATTTGGAT | binds |
